From patent US20140087995A1 (published 2014)
Numbered stars: 1 amine (or outer) side, 2 acyl side, 3 side chain; on linkers, the order of the positions; unused ones are H or OH. Bridge positions count the residues as written; N and C are the ends. * marks the point of attachment. C20 diacid = O=C(O)CCCCCCCCCCCCCCCCCCC(=O)*; γGlu = O=C(O)[C@H](CCC(=O)[*:2])N[*:1]

T1: human calcitonin receptor (human, UniProt P30988 25-474)
T1 sequence (looked up): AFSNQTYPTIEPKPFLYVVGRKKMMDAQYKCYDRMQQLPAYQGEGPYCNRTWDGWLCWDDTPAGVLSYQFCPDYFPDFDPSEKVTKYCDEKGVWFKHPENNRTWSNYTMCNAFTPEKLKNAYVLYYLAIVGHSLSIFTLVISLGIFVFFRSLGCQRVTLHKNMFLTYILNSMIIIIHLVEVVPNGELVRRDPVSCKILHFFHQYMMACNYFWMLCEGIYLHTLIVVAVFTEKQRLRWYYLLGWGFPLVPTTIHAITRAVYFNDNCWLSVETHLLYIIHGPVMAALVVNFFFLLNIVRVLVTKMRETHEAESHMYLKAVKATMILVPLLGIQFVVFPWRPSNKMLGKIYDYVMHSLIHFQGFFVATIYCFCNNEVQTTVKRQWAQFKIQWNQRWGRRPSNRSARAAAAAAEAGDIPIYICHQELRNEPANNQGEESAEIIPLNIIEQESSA


Biological target: T1, human calcitonin receptor
Assay: cell-based or functional assay

| Binder | hCTR funct. EC50 |
| --- | --- |
| KCNTATCATQRLANFLRHSSPNFGAIPSSTNVGSETY (alpha-amino group of N-terminal Lys1 acylated with C20 diacid via gGlu linker; disulfide Cys2-Cys7; C-terminal amide, h-amylin derivative; disulfide bridge and C-terminal amide as told for human amylin; also called compound 23) [N^α1-[(4S)-4-carboxy-4-(19-carboxynonadecanoylamino)butanoyl]-[Arg17,Pro21,Pro27,Glu35]-h-amylin] | 3.02 nM |
| {C20 diacid-γGlu}-KCNTATCATQRLANFLRHSSPNFGAIPSSTNVGPETY-NH2 (disulfide 2-7; SMILES CC[C@H](C)[C@H](NC(=O)[C@H](C)NC(=O)CNC(=O)[C@H](Cc1ccccc1)NC(=O)[C@H](CC(N)=O)NC(=O)[C@@H]1CCCN1C(=O)[C@H](CO)NC(=O)[C@H](CO)NC(=O)[C@H](Cc1c[nH]cn1)NC(=O)[C@H](CCCNC(=N)N)NC(=O)[C@H](CC(C)C)NC(=O)[C@H](Cc1ccccc1)NC(=O)[C@H](CC(N)=O)NC(=O)[C@H](C)NC(=O)[C@H](CC(C)C)NC(=O)[C@H](CCCNC(=N)N)NC(=O)[C@H](CCC(N)=O)NC(=O)[C@@H](NC(=O)[C@H](C)NC(=O)[C@@H]1CSSC[C@H](NC(=O)[C@H](CCCCN)NC(=O)CC[C@H](NC(=O)CCCCCCCCCCCCCCCCCCC(=O)O)C(=O)O)C(=O)N[C@@H](CC(N)=O)C(=O)N[C@@H]([C@@H](C)O)C(=O)N[C@@H](C)C(=O)N[C@@H]([C@@H](C)O)C(=O)N1)[C@@H](C)O)C(=O)N1CCC[C@H]1C(=O)N[C@@H](CO)C(=O)N[C@@H](CO)C(=O)N[C@H](C(=O)N[C@@H](CC(N)=O)C(=O)N[C@H](C(=O)NCC(=O)N1CCC[C@H]1C(=O)N[C@@H](CCC(=O)O)C(=O)N[C@H](C(=O)N[C@@H](Cc1ccc(O)cc1)C(N)=O)[C@@H](C)O)C(C)C)[C@@H](C)O, h-amylin derivative; disulfide bridge and C-terminal amide as told for human amylin; also called compound 29) | 0.857 nM |
| KCNTATCATQRLANFLRHSSPNFGAIPSSTNVGHNTY (alpha-amino group of N-terminal Lys1 acylated with C20 diacid via gGlu linker; disulfide Cys2-Cys7; C-terminal amide, h-amylin derivative; disulfide bridge and C-terminal amide as told for human amylin; also called compound 40) [N^α1-[(4S)-4-carboxy-4-(19-carboxynonadecanoylamino)butanoyl]-[Arg17,Pro21,Pro27,His34]-h-amylin] | 2.68 nM |
| KCNTATCATQRLAEFLRHSSPNFGAIPSSTNVGSNTY (alpha-amino group of N-terminal Lys1 acylated with C20 diacid via gGlu-2xOEG linker; disulfide Cys2-Cys7; C-terminal amide, h-amylin derivative; disulfide bridge and C-terminal amide as told for human amylin; also called compound 19) | 5.32 nM |
| KCNTATCATQRLANFLRHSSPNFGAIPSSTNVGRNTY (alpha-amino group of N-terminal Lys1 acylated with C20 diacid via gGlu linker; disulfide Cys2-Cys7; C-terminal amide, h-amylin derivative; disulfide bridge and C-terminal amide as told for human amylin; also called compound 39) [N^α1-[(4S)-4-carboxy-4-(19-carboxynonadecanoylamino)butanoyl]-[Arg17,Pro21,Pro27,Arg34]-h-amylin] | 2.52 nM |
| {C20 diacid-γGlu}-KCNTATCATQRLANFLRHSSPNFGAIPSSTPVGSETY-NH2 (disulfide 2-7; SMILES CC[C@H](C)[C@H](NC(=O)[C@H](C)NC(=O)CNC(=O)[C@H](Cc1ccccc1)NC(=O)[C@H](CC(N)=O)NC(=O)[C@@H]1CCCN1C(=O)[C@H](CO)NC(=O)[C@H](CO)NC(=O)[C@H](Cc1c[nH]cn1)NC(=O)[C@H](CCCNC(=N)N)NC(=O)[C@H](CC(C)C)NC(=O)[C@H](Cc1ccccc1)NC(=O)[C@H](CC(N)=O)NC(=O)[C@H](C)NC(=O)[C@H](CC(C)C)NC(=O)[C@H](CCCNC(=N)N)NC(=O)[C@H](CCC(N)=O)NC(=O)[C@@H](NC(=O)[C@H](C)NC(=O)[C@@H]1CSSC[C@H](NC(=O)[C@H](CCCCN)NC(=O)CC[C@H](NC(=O)CCCCCCCCCCCCCCCCCCC(=O)O)C(=O)O)C(=O)N[C@@H](CC(N)=O)C(=O)N[C@@H]([C@@H](C)O)C(=O)N[C@@H](C)C(=O)N[C@@H]([C@@H](C)O)C(=O)N1)[C@@H](C)O)C(=O)N1CCC[C@H]1C(=O)N[C@@H](CO)C(=O)N[C@@H](CO)C(=O)N[C@H](C(=O)N1CCC[C@H]1C(=O)N[C@H](C(=O)NCC(=O)N[C@@H](CO)C(=O)N[C@@H](CCC(=O)O)C(=O)N[C@H](C(=O)N[C@@H](Cc1ccc(O)cc1)C(N)=O)[C@@H](C)O)C(C)C)[C@@H](C)O, h-amylin derivative; disulfide bridge and C-terminal amide as told for human amylin; also called compound 28) | 2.03 nM |
